The target in assay [1] is Recombinant human TNF-alpha (Pierce, cat # RTNFA50) (human) (UniProt P01375). The experiment in a line: SPR (BiaCore X), rhTNF-alpha immobilized on CM5 chip, SCA as analyte, 1:1 fit. On the technique in general: Surface plasmon resonance follows binding to a sensor surface in real time, without labels.
The target is the same in assay [2]. The assay is described as follows: cell-based or functional assay.

Sequence of UniProt P01375 (P01375 whole entry, form in doubt): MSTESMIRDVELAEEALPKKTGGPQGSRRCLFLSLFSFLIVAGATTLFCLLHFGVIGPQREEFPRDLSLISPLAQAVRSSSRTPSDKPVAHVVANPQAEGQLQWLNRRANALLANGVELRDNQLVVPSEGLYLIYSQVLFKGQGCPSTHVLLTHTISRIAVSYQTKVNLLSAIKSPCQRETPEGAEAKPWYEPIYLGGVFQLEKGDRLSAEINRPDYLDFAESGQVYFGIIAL

For “2-7-SC-3 SCA (D2E7 SCA, VH-(GGGGS)3-VL-his6, C-terminus Cys), native (scFv)”, in assay [1], the Ka was determined as 1.1e+08 M⁻¹; the Kd (commonly a measure of binding affinity in units of concentration) was determined as 9.05 nM; the koff (commonly the first-order rate constant of dissociation) amounted to 0.000416 s⁻¹; the kon (in general, the second-order rate constant of association) is 46400 M⁻¹ s⁻¹.

On to “2-7-SC-2 SCA (D2E7 SCA, VL-218-VH-his6, C-terminus Cys), native (scFv)”, for which, in assay [2], the IC50, TNF-sensitive cell rescue assay, after 5 cycles of freeze-thaw came to 225 nM; the IC50, TNF-sensitive cell rescue assay, after 10 cycles of freeze-thaw was found to be 0.302 mg/L; the IC50 values (to rescue 50% WEHI-13VAR cells from killing by 1.0 ng/ml TNF) stood at 3.05 nM. Also, in assay [1], the Ka was 8.36e+08 M⁻¹, the Kd turned out to be 1.2 nM, the koff is 0.000392 s⁻¹ and the kon was 328000 M⁻¹ s⁻¹.

Regarding “2-7-SC-7 SCA (D2E7 SCA, VH-(GGGGS)3-VL-his6, Cys at linker position 2), native (scFv)”, in assay [1], the Ka is 1.19e+10 M⁻¹, the Kd is 0.0843 nM, the koff worked out at 2.96e-06 s⁻¹ and the kon was determined as 35100 M⁻¹ s⁻¹.

With “2-7-SC-5 SCA (D2E7 SCA, VL-218-VH-his6, Cys at linker position 2), native (scFv)”, the IC50 Values (cell rescue of WEHI-13VAR cells from TNF-alpha) in assay [2] was determined as 4.18 nM. In assay [1], the Ka was found to be 1.55e+10 M⁻¹, the Kd was determined as 0.0644 nM, the koff stood at 1.12e-05 s⁻¹ and the kon turned out to be 173000 M⁻¹ s⁻¹.

Consider “2-7-SC-4 SCA (D2E7 SCA, VL-218-VH, no his tag, C-terminus Cys), native (scFv)”, for which the IC50 Values (cell rescue of WEHI-13VAR cells from TNF-alpha) in assay [2] came out at 7.18 nM. Also, in assay [1], the Ka was found to be 5.49e+08 M⁻¹, the Kd was found to be 1.82 nM, the koff is 0.000495 s⁻¹ and the kon was found to be 272000 M⁻¹ s⁻¹.

For the origin of these results see patent US20040009166A1.
